Data taken from the nanobody polyreactivity screen of Harvey et al. (2022).

Test: yeast display, Sf9 membrane polyspecificity reagent, FACS + sequencing; frameworks hold sequencing errors
Outline: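 Galactose-induced (36–48 hours) yeast carrying a synthetic nanobody display library were exposed to 10% biotinylated, detergent-solubilized Sf9 membrane reagent at 4 °C for 1 hour. FACS followed streptavidin microbead enrichment, using low and high (top ~1%) gates for expression (anti-HA) and reagent binding (streptavidin). Colony PCR, MiSeq 2 × 250 sequencing and CDR-length filtering followed. Labels for polyreactivity reflect the gate of origin.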

| Sequence | polyreactivity (PSR sort gate) |
| --- | --- |
| QVQLVESAGGLVQAGGSLRLSCAASGFIFYSNAMGWYRQAPGKERELVAGISRGGSTYYADSVKGRFTISRDNAKNTVYLQMNSLKPEDTAVYYCAASPSSYGRYGYWGQGTQVTVSS | low polyreactivity |
| QVQLVESAGGLVQAGGSLRLSCAASGFTFREYAMGWYRQAPGKERELVAVITSGDNTYYADSVKGRFTISRDNAKNTVYLQMNSLKPEDTAVYYCAKDYNRYYWPWVIRGYDYWGQGTQVTVSS | low polyreactivity |
| QVQLVESAGGLVQAGGSLRLSCAASGFTFYWYAMGWYRQAPGKEREFVAAIDQSGGSTYYADSVKGRFTISRDNAKNTVYLQMNSLKPEDTAVYYCAARYILWDGDSWTEFDYWGQGTQVTVSS | low polyreactivity |
| QVQLVESAGGLVQAGGSLRLSCAASGITLSYNAMGWYRQAPGKERELVAAISARGGSTYYADSVKGRFTISRDPAKNTVYLQMYSLKPEDTAVYYCAAPRGWRQNKYDYWGQVTQVTVSS | high polyreactivity |
| QVQLVESAGGLVQAGGSLRLSCAASGITYDHYAMGWYRQAPGKERELVARITGTGDSTYYADSVKGRFTISRDNAKNTVYLQMNSLKPEDTAVYYCAAVSYRQYYGWGNYWGLGTQVTVSS | low polyreactivity |
| QVQLVESAGGLVQAGGSLRLSCAASGLTYVPNAMGWYRQAPGKEREIVAAICNNGGRTYYADSVKGRFTISRDNAKNTVYLEMNSLKPEDTAVYYCAKYLSPGERHSYDYWGQGTQVTVSS | high polyreactivity |
| QVQLVESAGGLVQAGGSLRLSCAASGNTFDPNAMGWYRQAPGKEREFVAAISTIGSSTYYADSVKGRFTISRDNAKYTVYLQMNSLNPEVTAVYYCAKGIYVVYGIDDYWGQGTQVTLSS | low polyreactivity |
| QVQLVESAGGLVQAGGSLRLSCAASGRIFGQYTMGWYRQAPGKERELDAAISSSGGRTYYADSVKGRFTISRDNAKNTVYLQMNSLKPEDTAVYYCAARDRPSPYYYWGQGTQVTVSS | high polyreactivity |
| QVQLVESAGGLVQAGGSLRLSCAASGRIFWLYAMGWYRQAPGKERELVASISQSGANTYYADSVKGRFTISRDNSKNNVYLQMNCLKPEYTSVDYCSSNRYDSYYFWVGYWGQGSQVTVSS | low polyreactivity |
| QVQLVESAGGLVQAGGSLRLSCAASGRILPSNAMGWYRQAPGKERELVAGITSGGSTDYADSVKGRFTISRDNAKNTVYLQMNSLKPEDTGVFYCAADSRRYGVRFDYWGQGTQVTVSS | low polyreactivity |
| QVQLVESAGGLVQAGGSLRLSCAASGRTFGWYAMGWYRQAPGKERELVAAITSSDDSTYYADSVKGRFTISRDNAKNTVYLQMNSLKPEDTEVYYCNKVKYFARSAYGYWGLGTQVTVSS | low polyreactivity |
| QVQLVESAGGLVQAGGSLRLSCAASGRTFHWYTMGWYRQAPGKEREFVAGINWSGARTYYADSVKGRFTISRDNAKNTVYLQMNSLKPEDTAVYYCAKRLWGIDFDYWGQGTQVTVSS | high polyreactivity |
| QVQLVESAGGLVQAGGSLRLSCAASGRTFWSYAMGWSRQAPGKERELVAAINSGGSTYYADSVKGRFTISRDNAKITVYLQRNSLKPEDTAVYYCDADTWYGFDWGVGTQVTVSS | high polyreactivity |
| QVQLVESAGGLVQAGGSLRLSCAASGRTFYSYAMGWSRQAPGKEREFVAAITKSGGSTYYADSVKGRFTISRDNAKNTVYLQMNSLKPEDTAVYYCAAGLVATFSRPGRASYRYNYWGQGTQVTVSS | high polyreactivity |
| QVQLVESAGGLVQAGGSLRLSCAASGRTITFNTMGLYRQAPGKERELVAGIDRGGSTNYADSVKGRFTISRDNAKNTVYLQMNSLKPEDTAVYYCAADPPGYVYGKRYYWGQGTQVTVSS | high polyreactivity |
| QVQLVESAGGLVQAGGSLRLSCAASGSIFNVYDMGWYRQAPGKERELVAAITWSGGRTYYADSVKGRFTISRDNAKNTVYLQMNSLKPEDTAVSSCSARRWWVKSWRRFDYWGQGTQVTVSS | high polyreactivity |

| Sequence | polyreactivity (PSR sort gate) |
| --- | --- |
| QVQLVESAGGLVQAGGSLRLSCAASGSIFSDNPMGWYIQAPGKERALVASITNSGSTNYADSVKGRFTISRDNAKNTVYLQMNILKPEDTAVYYCAFSFLYTYDNWGQGTQVTVSS | low polyreactivity |
| QVQLVESAGGLVQAGGSLRLSCAASGSILDRYAMGWDRQAPGKERELVAAITYSSGRTYYADSVKGRFTISRDNAKNTVYLQMNSLKPEDTAVYYCAARPFKRSNGGGQYYYWGQGTQLTVSS | high polyreactivity |
| QVQLVESAGGLVQAGGSLRLSCAASGSTFAIKAMGWYRQAPGKERELVAAISSSGSTNYADSVKGRFTISRDNAKNTVYLQMNSLKQEDTAVYYCAADRVWGTPQAYVPSHFDYWGQGTQVTVSS | low polyreactivity |
| QVQLVESAGGLVQAGGSLRLSCAASGSTFGKYAMGWDRHAPGKERELVAAISWSGGSTYYADSVKGRFTISRDNAKNTVYLQMNSLKPEDTAVYYCTVYRYDGDYWGQGTQVTVSS | high polyreactivity |
| QVQLVESAGGLVQAGGSLRLSCAASGSTFQWYAMGWSRQAPGKERELVAAIDSDGGTNYADSVKGRFTISRDNAKNTVYLQMNSLKPEDTAVYYCAVKPFYYGSEFDYWGQGTQVTVSS | low polyreactivity |
| QVQLVESAGGLVQAGGSLRLSCAASGSTFTGYAMGWYRQAPGKERELVAAITYSGVRTNYADSVKGRFTISRDNANNTVYLQMNSLKPEDTAVYYCNAAVVYVKMDYWGQGTQVTVSS | low polyreactivity |
| QVQLVESAGGLVQAGGSLRLSCAASGSTFTSYAMGWYRQAPGKERELVDAITRNGGTTYYADSVKGRFTISRDNAKNTVYLQMNSLKPEDTAVYYCNAPHYYYITSDRRFDYWGQGTQVTVSS | low polyreactivity |
| QVQLVESAGGLVQAGGSLRLSCAASGSTFYTYTMGWYRQAPGKERELVAAISSSGGDTYYADSVKGRFTISRDNAKNTVYLQMNSLKPEDTAVYYCAAAGPYGAVWRNDYWGQGTQVTVSS | low polyreactivity |
| QVQLVESAGGLVQAGGSLRLSCAASGSTLYQYTMGWYRQAPGKERELVAAISRSGGRTYYADSVKGRFTISRDNAKNTVYLQMNSLKPEDTAVYYCAVDPGAYDSWGQGTQVTVSS | high polyreactivity |
| QVQLVESAGGLVQAGGSLRLSCAASGSTQVIYHMGWNRQAPGNERYIVAAITYGGGRTYYADSVKGRFTISSDNAKNTVYLQMNSLKPEDTAYYYCAAYSYYYTWNPGYWGQGTQVTVSS | high polyreactivity |
| QVQLVESAGGLVQAGGSLRLSCAASGYIFYFYAMGWYRQAPGKERELVAAITSVGSTKYADSVKGRFTISRDNAKNTVYLQMNSLKPEDTAVYYCAARSWSGYGLYNYWGHGTQVTVSS | high polyreactivity |
| QVQLVESAGGLVQAGGSLRLSCAASGYTFDFYAMGWYRQAPGKERELVAAISKNDGTTYYADSVKGRFTISRDNAKNTVYLQMNSLKPEDTAVYYCAAESGYPVYTYVSSGDYWGQGTQVTVSS | low polyreactivity |
| QVQLVESAGGLVQAGGSLRLSCAASGYTFYRNAMGCYRQAPGKERELVAAISWRGGSTYYADSVKGRFTISRDNAKNTVYLQMNSLKPEDTAVYYCAAYFSYGGSTTGEEYWGQGTQVTVSS | high polyreactivity |
| QVQLVESAGGLVQAGGSLRLSCAATGFTFYTYAMGWYRQAPGKERELVADISSGGSTNYADSVKGRFTISRDNAKNTVYLQMNSLKPEDTAVYYSSAVYYFLDWYDYWGQGTQVNVSS | low polyreactivity |
| QVQLVESAGGLVQAGGSLRLSCAATGSTVDRNGMGWYRQAPGKERELVASISGRGGSTYYADSVKGRFTISRDHAKNTVYLQMNRLKPEDTAVYYCAVRYGFFSRYNSWGQGTQVTVSS | high polyreactivity |
| QVQLVESAGGLVQAGGSLRLSCAAYGSIIKRNAMGWYRQAPRKERQLVATSSSGDGSTRYADSVKWRFTISRDNAKNTVYLQMNSLKPEDTAVYYCALDFTYTYYRWKNPYRIGHDYWGHGTQVTVSS | low polyreactivity |
